In US20200377597A1 (SUNSHINE GUOJIAN PHARMACEUTICAL SHANGHAI CO LT, published 2020):
Positions count from the first letter of the chain named.

B1: mAb1-25-Chimeric (antibody, human IgG4 S228P, kappa, V domains shown)
VH: EVKLVESGGDLVKPGGSLKLSCVASGFAFSSYDMSWVRQTPEKRLEWVATISGGGRYTYYPDTVKGRFTISRDNARNTHYLQMSSLRSEDTALYFCASPYGGYFDVWGAGTTVTVSS
VL: DIVLTQSPATLSVTPGARVSLSCRASQSISNFLHWYQQKSHESPRLLIKYASQSISGIPSRFSGSGSGTDFTLSISSVETEDFGMYFCQQSNSWPHTFGAGTKLELKR
notes: Murine variable regions spliced to human IgG4 and Kappa constant regions; expressed in HEK293; also called chimeric antibody of murine antibody No. 1-25
B2: mAb1-15-Humanized (antibody, human IgG4 S228P, kappa, V domains shown)
VH: EVQLVESGGGLVQPGGSLRLSCAASGFTFSSYDMSWVRQAPGKRLEWVATISGGGRYTYYPDSVKGRFTISRDNAKNSLYLQMNSLRAEDTAVYYCANRYDVDWFAYWGQGTLVTVSS
VL: EIVLTQSPATLSLSPGERATLSCRASQSISNNLHWYQQKPGQAPRLLIKYASQSISGIPARFSGSGSGTDFTLTISSLEPEDFAVYFCQQSNSWPLTFGQGTKVEIKR
notes: Human IgG4/Kappa, expressed in HEK293, purified on Protein A; also called humanized antibody No. 1-15
B3: mAb1-25-Humanized (antibody, human IgG4 S228P, kappa, V domains shown)
VH: EVKLVESGGGLVQPGGSLRLSCAASGFAFSSYDMSWVRQAPGKRLEWVATISGGGRYTYYPDTVKGRFTISRDNAKNSHYLQMNSLRAEDTAVYFCASPYGGYFDVWGQGTLVTVSS
VL: B2 VL with N32F, L96H
notes: Human IgG4/Kappa, expressed in HEK293E, purified on Protein A; also called humanized antibody No. 1-25
B4: mAb1-15-Chimeric (antibody, human IgG4 S228P, kappa, V domains shown)
VH: B2 VH with Q3N, Q13K, R19K, A40T, G42E, S78N, N84S, A88S, V93L, S118A
VL: B1 VL with A17D, R18S, F32N, S76N, H96L, K107N
notes: Murine variable regions spliced to human IgG4 and Kappa constant regions; expressed in HEK293; also called chimeric antibody of murine antibody No. 1-15

Key:
[1] = target: T1, monovalent human PD-1 (purchased from Sino Biological Inc.) (human, UniProt Q15116 25-167); test: SPR Biacore T200; antibody captured on Protein A/G, monovalent human PD-1 as analyte
T1 construct: Bought reagent
Source text: The first method was as follows: A CM5 sensor chip (GE healthcare) was activated by the Amine Coupling Kit (GE healthcare) and the Protein A/G fusion protein (Thermo Pierce) was immobilized on the chip with an amount of 2000 RU. FC3 (Flow cell 3) was a reference channel, and FC4 (Flow cell 4) was a sample channel.

human PD-1 = human PD-1 (human, UniProt Q15116 25-288); test: cell-based or functional assay
human PD-1-hFc = target: T2, human PD-1-hFc (human, UniProt Q15116 25-170, biotin-labelled with EZ-Link Sulfo-NHS-Biotin in the second SPR method); test: SPR Biacore T200; biotinylated PD-1-hFc on SA chip, antibody as analyte
T2 construct: extracellular domain; also called PD-1-hFc antigen; PD-1-hFc fusion protein; not shown: Fc region of human IgG1
Description: The second determination method was as follows: PD-1-hFc in Example 1 was biotin-labelled using EZ-Link™ Sulfo-NHS-Biotin (Thermo Fisher Scientific), and the specific operation was carried out according to the instructions provided by the manufacturer. After labeling, the excess biotin labeling reagent was removed by dialysis; the aforementioned biotinylated PD-1-hFc fusion protein was immobilized on a chip using Sensor chip SA (GE healthcare). FC3 (Flow cell 3) was a reference channel, and FC4 (Flow cell 4) was a sample channel.

CD28-hFc = target: T3, CD28-hFc (UniProt P10747 19-152); test: ELISA, plate coated with CD28-hFc at 2 ug/ml, detection with HRP goat anti-human Fab, OD450
T3 construct: Bought reagent; construct not described; not shown: hFc of a bought product
Description: (§1) The protein molecules such as CD28, CTLA-4, and ICOS belong to the same family as PD-1, and the sequences have homology. […] Each well was added with 200 μl of coating solution containing 1% BSA, and blocked at room temperature for 4 hours, then patted dry, and stored in a refrigerator at -20° C. until use. […] 100 μl of HRP-labeled goat anti-human Fab antibody (purchased from Sigma) diluted 1:5000 with PBST was added and incubated at room temperature for 1 hour; washed 3 times with PBST and patted dry. 100 μl of chromogenic solution (ELISA chromogenic solution A and chromogenic solution B were mixed in a volume ratio of 1:1 before use) was added to each well, then 100 μl of 2M H₂SO₄ stop solution was added to each well to stop the reaction. The OD value of each well was immediately measured at a wavelength of 450 nm using a microplate reader (Molecular Device).

ICOS-hFc = target: T4, ICOS-hFc (UniProt Q9Y6W8 21-141); test: ELISA, plate coated with ICOS-hFc at 2 ug/ml, detection with HRP goat anti-human Fab, OD450
T4 construct: Bought reagent; construct not described; not shown: hFc of a bought product
T4 sequence (looked up): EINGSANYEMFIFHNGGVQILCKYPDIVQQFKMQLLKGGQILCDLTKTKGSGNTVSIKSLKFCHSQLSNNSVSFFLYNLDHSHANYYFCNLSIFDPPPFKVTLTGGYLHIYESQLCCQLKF
Description: as §1

T1 sequence (Q15116 25-167 limits assumed): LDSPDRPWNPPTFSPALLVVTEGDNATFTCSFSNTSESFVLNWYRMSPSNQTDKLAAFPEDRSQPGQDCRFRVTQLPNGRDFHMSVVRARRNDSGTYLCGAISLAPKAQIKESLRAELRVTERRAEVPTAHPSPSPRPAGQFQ
T2 sequence (Q15116 25-170): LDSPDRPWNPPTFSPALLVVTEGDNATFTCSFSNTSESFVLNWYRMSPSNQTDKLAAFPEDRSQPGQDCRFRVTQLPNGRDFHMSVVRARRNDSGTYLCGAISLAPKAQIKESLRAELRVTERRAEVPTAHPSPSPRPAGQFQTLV
Sequence of human PD-1 (Q15116 25-288): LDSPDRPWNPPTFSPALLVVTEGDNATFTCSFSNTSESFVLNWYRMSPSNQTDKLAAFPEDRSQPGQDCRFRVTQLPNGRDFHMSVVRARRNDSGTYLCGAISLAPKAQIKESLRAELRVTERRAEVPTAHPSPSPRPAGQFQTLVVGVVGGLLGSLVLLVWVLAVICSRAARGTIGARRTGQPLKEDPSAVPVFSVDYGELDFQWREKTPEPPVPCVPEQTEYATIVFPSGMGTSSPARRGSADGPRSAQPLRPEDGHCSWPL

Binder | Kd [1] | koff [1] | kon [1] | Cell proliferation (FIG. 3), MLR EC50 (human PD-1) | IFN-γ secretion (FIG. 2), MLR EC50 (human PD-1) | IL-2 secretion (FIG. 1), MLR EC50 (human PD-1) | Kd (human PD-1-hFc) | koff (human PD-1-hFc) | kon (human PD-1-hFc) | binding result (CD28-hFc) | binding result (ICOS-hFc)
B1 | 0.231 nM | 4.14e-05 s⁻¹ | 179000 M⁻¹ s⁻¹ | 0.00669 µg/mL | 0.0254 µg/mL | 0.00995 µg/mL | – | – | – | – | –
B2 | 4.28 nM | 0.000117 s⁻¹ | 27300 M⁻¹ s⁻¹ | 0.0172 µg/mL | 0.0557 µg/mL | 0.0165 µg/mL | 0.0408 nM | 3.12e-05 s⁻¹ | 764000 M⁻¹ s⁻¹ | – | –
B3 | – | – | – | – | – | – | – | – | – | no binding (tested: log 3.6 (about 4000 ng/ml)) | no binding (tested: log 3.6 (about 4000 ng/ml))
B4 | 2.34 nM | 0.000148 s⁻¹ | 62900 M⁻¹ s⁻¹ | 0.0146 µg/mL | 0.0284 µg/mL | 0.0236 µg/mL | – | – | – | – | –
